# Source: PMC9464890, “Exosite binding modulates the specificity of the immunomodulatory enzyme ScpA, a C5a inactivating bacterial protease” (Computational and Structural Biotechnology Journal, 2022)
# Experiments:
# [1] = target: R46A_(core) (human); assay: SPR; as a1 (NTA chip, immobilised His-tagged C5a form, D783A_(S512A) flowed, 25 °C, Hepes buffer), but KD from fitting of the response units at equilibrium because of very fast dissociation; triplicate
# [2] = target: rhC5a_(R40A) (human); assay: as above
# [3] = target: rhC5a_(R37A) (human); assay: as above
# [4] = target: R37A_(core) (human); assay: as above
# [5] = target: R40A_(core) (human); assay: as above
# [6] = target: rhC5a_(R46A) (human); assay: as above
# [7] = target: rhC5a_(core) (human); assay: SPR; BIAcore X100, NTA sensor chip with about 20-25 RU of immobilised His-tagged C5a form (ligand), ScpA form flowed as ligate at 30 uL/min, 25 °C, 10 mM Hepes-KOH pH 7.4, 150 mM NaCl, 0.005% Tween 20, 50 uM EDTA; global fit, 1:1 Langmuir model with drifting baseline; triplicate
binder,measurement,setting,value
"ScpA_(S512A,D783A) (enzyme) ANTVTEDTPVTEQAVETPQPTAVSEEVPSSKETKTPQTPDDAEETIADDANDLAPQAPAKTADTPATSKATIRDLNDPSQVKTLQEKAGKGAGTVVAVIDAGFDKNHEAWRLTDKTKARYQSKEDLEKAKKEHGITYGEWVNDKVAYYHDYSKDGKTAVDQEHGTHVSGILSGNAPSETKEPYRLEGAMPEAQLLLMRVEIVNGLADYARNYAQAIRDAVNLGAKVINMSFGNAALAYANLPDETKKAFDYAKSKGVSIVTSAGNDSSFGGKTRLPLADHPDYGVVGTPAAADSTLTVASYSPDKQLTETAMVKTDDQQDKEMPVLSTNRFEPNKAYDYAYANRGMKEDDFKDVKGKIALIERGDIDFKDKVANAKKAGAVGVLIYDNQDKGFPIELPNVDQMPAAFISRKDGLLLKDNPQKTITFNATPKVLPTASGTKLSRFSSWGLTADGNIKPDIAAPGQDILSSVANNKYAKLSGTAMSAPLVAGIMGLLQKQYETQYPDMTPSERLDLAKKVLMSSATALYDEDEKAYFSPRQQGAGAVDAKKASAATMYVTDKDNTSSKVHLNNVSDKFEVTVTVHNKSDKPQELYYQATVQTDKVDGKHFALAPKVLYEASWQKITIPANSSKQVTVPIDASRFSKDLLAQMKNGYFLEGFVRFKQDPTKEELMSIPYIGFRGDFGNLSAVEKPIYDSKDGSSYYHEANSDAKDQLDGDGLQFYALKNNFTALTTESNPWTIIKAVKEGVENIEAIESSEITETIFAGTFAKQDDDSHYYIHRHANGEPYAAISPNGDGNRDYVQFQGTFLRNAKNLVAEVLDKEGNVVWTSEVTEQVVKNYNNDLASTLGSTRFEKTRWDGKDKDGKVVANGTYTYRVRYTPISSGAKEQHTDFDVIVDNTTPEVATSATFSTEDRRLTLASKPKTSQPVYRERIAYTYMDEDLPTTEYISPNEDGTFTLPEEAETMEGATVPLKMSDFTYVVEDMAGNITYTPVTKLLEGHS",Kd,[1],4330 nM
same,Kd,[2],1500 nM
same,Kd,[3],2000 nM
same,Kd,[4],> 10000 nM
same,Kd,[5],> 15000 nM
same,Kd,[6],669 nM
same,Kd,[7],1970 nM
same,koff,[7],0.0216 s⁻¹
same,kon,[7],11000 M⁻¹ s⁻¹
